Test results reported in patent US9217139B2, “Extracellularly secreted nuclease” (JAPAN AGENCY FOR MARINE-EARTH SCIENCE AND TECHNOLOGY, priority 2010, dated 2015).

B1: NucS: low-molecular-weight nucleolytic enzyme, about 17 to 21 kDa, secreted by Streptomyces sp. MBE174; SEQ ID NO. 3 (protein)
chain: MPKLYARRRFAVLAALTGLIASAGLFHGPAASAALPTPVSAATARGYLASLKVAPENRTGYKRDLFPHWITQSGTCNTRETVLKRDGTNVVTDAACAATSGSWYSPFDGATWTAASDVDIDHLVPLAEAWDSGASAWTTAQRQAFANDLTRPQLLAVTDTVNQSKGDKDPAEWMPPRAAYHCTYVRAWVQVKYYYGLSVDTAEKTALTNRLAGC
modifications: Streptmyces sp. MBE174
B2: NucL: nucleolytic enzyme of about 66.5 kDa secreted by Streptomyces sp. MBE174; SEQ ID NO. 4 (protein)
chain: MASQSVTRLAALTVAATCSAASVVVLGPPAHADSVRIHDIQGTTRISPYAGRQVADVPGVVTGVRDHGSSRGFWFQDPRPDDDPATSEGVFVFTGSAPGVEAGDAVTVSGTVSEFVPGGTASGNQSLTEITRPTVTVVSRGNPVPDPVVVSARSVPHAYAPAGDAAANGSVNALPLRPDRYALDYYESLEGMNVQVADARVVGATDPYTELWVTVKPGENASPRGGTVYGSRDAQNTGRLQIQTLGVPAGFPAADVGDTLAGATTGPLDYNQFGGYTLVARSLGTLTAGGLARETTREQHRDELSVATYNVENLDPSDGTFAAHAEAIVRNLRSPDIVSLEEIQDDNGATDDGTVTAGVTVGKLIDAVVAAGGPRYDWRSVDPVDKADGGQPGGNIRQVFLFDPRRVSFADRPGGDAVTATGVVKVRGKAALTHSPGRVDPANPAWLNSRKPLAGEFSFRGRTVFVIANHFASKGGDQGLTSQYQPPARSSETQRHLQATAVNTFVKQILAVQKNADVIALGDINDFEFSGTTERLEAGGALWSAVRSLPPGERYSYVYQGNSQVLDQILVSPSIRRGHLSYDSVHINAEFHDQISDHDPQVLRYRP
modifications: Streptmyces sp. MBE174

Experiments:
[1] = isoelectric point by Novex IEF pH-3-10 gel; type: physicochemical
Description: The molecular weight was measured by gel filtration chromatography with the use of Superdex G75 (manufactured by GE Healthcare). An elution position corresponding to a molecular weight of about 16 kDa was confirmed as a peak top from a column. Since the value was much coincident with a molecular weight (about 17 to 21 kDa) of an enzyme produced on SDS-PAGE, it can be determined that NucS exists as monomer. The isoelectric point was measured by using Novex (Registered Trademark) IEF pH-3-10 gel (manufactured by Invitrogen); and pl was 10.
The specific activity of NucL was 5.6×10^4 U/mg-protein at 37 degrees Celsius in 20 mM of Tris/HCl at pH 8.5 that contains 1 mM of MgCl2 and 1 mM of CaCl2. The isoelectric point was measured by using Novex (Registered Trademark) IEF pH-3-10 gel (manufactured by Invitrogen); and then pl was 7.0. Then, it was determined that a N-terminal amino acid sequence of the purified enzyme was DSVRIHDIQGTTR. The sequence matched 12 out of 13 amino acids of putative protein (putative secreted hydrolase) coded on a genome of Streptomyces scabiei 87.22, and of putative protein (large secreted protein) coded on a genome of S. avermitilis MA-4680.

[2] = thermal stability test (residual activity); type: biochemical; conditions: heat treatment 30 minutes, 20 mM Tris/HCl pH 8.5, 1 mM MgCl2, 1 mM CaCl2; ice bath = 100 percent
Description: After heat treatment was conducted for 30 minutes at each temperature in 20 mM of Tris/HCl at pH 8.5 that contained 1 mM of MgCl2 and 1 mM of CaCl2, the residual activity was measured (referring to FIG. 6). An activity of an enzyme stored in an ice bath was regarded as 100 percent.

[3] = system: Deoxyribonucleic acid sodium salt from salmon testes; assay: effects of monovalent salt on enzyme activity; type: biochemical; conditions: 10 mM Tris/HCl pH 8.5, 1 mM MgCl2, 25 degrees Celsius
Description: Effects of monovalent salt on NucS and NucL were examined. At each concentration level of NaCl, the nucleic-acid degradation activity was measured at 25 degrees Celsius for 15 minutes by using, as substrate, Deoxyribonucleic acid sodium salt from salmon testes 0.4 mg/mL (manufactured by Sigma-Aldrich; Cat no. D1626-1G) in 10 mM of Tris/HCl at pH 8.5 that contained 1 mM of MgCl2 and 0 to 1,000 mM of NaCl. […] Substantially similar results were obtained even in the case of using KCl (referring to FIG. 8).

[4] = system: Circular plasmid DNA (pUC 18); assay: degradation of circular plasmid DNA (agarose gel electrophoresis); type: biochemical; conditions: single enzyme, 25 degrees Celsius, 15 minutes; NucL level up to 0.5 U
Description: Circular plasmid DNA (pUC 18) that had been purified by using a plasmid purification kit (HiSpeed (Registered Trademark) Plasmid Midi Kit; manufactured by QIAGEN, Cat no. 12643) was used as substrate to analyze nucleic-acid degradation styles of NucS and NucL. According to the standard specific activity measurement method, the enzyme solutions that were different in enzyme level as shown in the table below were added to a plasmid solution (about 2 to 10 μg). Then, a nucleic-acid degradation reaction was carried out at 25 degrees Celsius for 15 minutes. After the degradation, a reaction solution was subjected to a 1-percent agarose gel electrophoresis, and the degradation manner of the degraded DNA was analyzed.
Next, the enzyme level of NucL was increased to 0.5 U, and a test was conducted to examine if the plasmid could be completely degraded (referring to FIG. 13).

[5] = phosphodiesterase activity test; type: biochemical; conditions: 100 mM Tris/HCl pH 8.5, 1 mM MgCl2, 1 mM CaCl2, 1 percent glycerol, 25 degrees Celsius
Description: (§1) Bis(p-nitrophenyl)phosphate and p-nitrophenylphosphate were used as substrate. The method of Tomoyeda et al. (referring to Archives of biochemistry and biophysics. 131(1), 191-202, 1969; the contents of the document are incorporated herein by reference) was used. In 100 mM of Tris/HCl at pH 8.5 that contained 1 mM of MgCl2, 1 mM of CaCl2, and 1 percent of glycerol, with the use of a reaction solution that contained 0.2 percent of the above substrate, the phosphodiesterase activity and phosphatase activity of both enzymes were measured at 25 degrees Celsius.

[6] = phosphatase activity test; type: biochemical; conditions: 100 mM Tris/HCl pH 8.5, 1 mM MgCl2, 1 mM CaCl2, 1 percent glycerol, 25 degrees Celsius
Description: as §1

Molecule	isoelectric point (pl) [1]	temperature until which the enzyme remained stable [2] [degrees Celsius]	activity in dependence on NaCl concentration ([3]; 0 to 1,000 mM NaCl)	degradation of circular plasmid DNA, supercoiled or relaxed type [4]	phosphodiesterase activity [5]	phosphatase activity [6]	NaCl concentration up to which the enzyme remained active [3]
B1	10	≤ 45	high when the concentration of NaCl was low	could completely degrade the plasmids	does not have	does not have	–
B2	7.0	≤ 35	–	could completely degrade the plasmids	has	has	up to 1,000 mM
